In article PMC10098127:

Target: HA-tagged N100A zDHHC17 (mouse) (UniProt Q80TN5)

protein levels of ankyrin-B-GFP (western blot) co-expressed with N100A zDHHC17 in HEK293T cells, against WT zDHHC17 or zDHHA17: 3 fold
Substance: Human ankyrin-B-GFP (220-kDa splice variant of ankyrin-B)
